From patent US20230295348A1 (NOVIMMUNE, published 2023)

T1: human recombinant IL-2Rβ (human, UniProt P14784 27-239, limits assumed)
T1 construct: Biotinylated and captured on streptavidin plates in the ELISA; also called IL-2Rb; IL2Rb
T1 sequence (looked up): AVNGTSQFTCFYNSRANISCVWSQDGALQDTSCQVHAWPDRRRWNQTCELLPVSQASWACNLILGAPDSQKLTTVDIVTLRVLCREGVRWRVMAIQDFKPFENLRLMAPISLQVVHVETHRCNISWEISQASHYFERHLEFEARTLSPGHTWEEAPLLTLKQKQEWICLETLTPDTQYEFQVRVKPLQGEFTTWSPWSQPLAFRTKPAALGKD

T2: human recombinant IL-2Rγ (human, UniProt P31785 23-262, limits assumed)
T2 construct: Biotinylated and captured on streptavidin plates in the ELISA; also called IL-2Rg; IL2Rg
T2 sequence (looked up): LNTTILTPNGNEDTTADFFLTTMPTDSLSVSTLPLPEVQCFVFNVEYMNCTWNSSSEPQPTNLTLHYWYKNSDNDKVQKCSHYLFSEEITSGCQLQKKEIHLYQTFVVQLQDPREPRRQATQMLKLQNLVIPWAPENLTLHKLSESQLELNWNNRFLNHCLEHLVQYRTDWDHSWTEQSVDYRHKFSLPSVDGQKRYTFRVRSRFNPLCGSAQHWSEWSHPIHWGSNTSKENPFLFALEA


Key:
Assay in all cases: direct ELISA, biotinylated recombinant protein on streptavidin plates
[1] = molecular target: T3, human recombinant HER2 (human, UniProt P04626 23-652)
T3 construct: Biotinylated and captured on streptavidin plates in the ELISA; also called human epidermal growth factor receptor 2

[2] = molecular target: T1, human recombinant IL-2Rβ
[3] = molecular target: T2, human recombinant IL-2Rγ

| binding result [1] | binding result [2] | binding result [3] | Binder |
| --- | --- | --- | --- |
| binds | binds | – | AL5N2-28 (bispecific antibody, human IgG1, kappa, lambda, L234A L235A, κλ-body: common heavy chain, kappa anti-IL2Rβ light chain (AL5), lambda anti-HER2 light chain (N2-28); also called AL5N2-28/N) heavy: not shown light 1: not shown light 2: SYVLTQPPSVSVAPGKTARITCGGNTIGSTVVHWYQQKPGQAPVLVIYFDDARPSGIPERFSGSNSGNTATLTISRVEAGDEADYYCQVWDSFGLSLAPVFGGGTKLTVLGQPKAAPSVTLFPPSSEELQANKATLVCLISDFYPGAVTVAWKADSSPVKAGVETTTPSKQSNNKYAASSYLSLTPEQWKSHRSYSCQVTHEGSTVEKTVAPTECS |
| binds | binds | – | AL2N2-28 (bispecific antibody, human IgG1, kappa, lambda, L234A L235A, κλ-body: common heavy chain, kappa anti-IL2Rβ light chain (AL2), lambda anti-HER2 light chain (N2-28); also called AL2N2-28/N) heavy: not shown light 1: not shown light 2: SYVLTQPPSVSVAPGKTARITCGGNTIGSTVVHWYQQKPGQAPVLVIYFDDARPSGIPERFSGSNSGNTATLTISRVEAGDEADYYCQVWDSFGLSLAPVFGGGTKLTVLGQPKAAPSVTLFPPSSEELQANKATLVCLISDFYPGAVTVAWKADSSPVKAGVETTTPSKQSNNKYAASSYLSLTPEQWKSHRSYSCQVTHEGSTVEKTVAPTECS |
| binds | binds | – | AL4N2-28 (bispecific antibody, human IgG1, kappa, lambda, L234A L235A, κλ-body: common heavy chain, kappa anti-IL2Rβ light chain (AL4), lambda anti-HER2 light chain (N2-28); also called AL4N2-28/N) heavy: not shown light 1: DIQMTQSPSSLSASVGDRVTITCRASQSIDEYLNWYQQKPGKAPKLLIYEASKLQSGVPSRFSGSGSGTDFTLTISSLQPEDFATYYCQQDGAMDTYATFGQGTKVEIKRTVAAPSVFIFPPSDEQLKSGTASVVCLLNNFYPREAKVQWKVDNALQSGNSQESVTEQDSKDSTYSLSSTLTLSKADYEKHKVYACEVTHQGLSSPVTKSFNRGEC light 2: SYVLTQPPSVSVAPGKTARITCGGNTIGSTVVHWYQQKPGQAPVLVIYFDDARPSGIPERFSGSNSGNTATLTISRVEAGDEADYYCQVWDSFGLSLAPVFGGGTKLTVLGQPKAAPSVTLFPPSSEELQANKATLVCLISDFYPGAVTVAWKADSSPVKAGVETTTPSKQSNNKYAASSYLSLTPEQWKSHRSYSCQVTHEGSTVEKTVAPTECS |
| binds | binds | – | AL3N2-28 (bispecific antibody, human IgG1, kappa, lambda, L234A L235A, κλ-body: common heavy chain, kappa anti-IL2Rβ light chain (AL3), lambda anti-HER2 light chain (N2-28); also called AL3N2-28/N) heavy: not shown light 1: not shown light 2: SYVLTQPPSVSVAPGKTARITCGGNTIGSTVVHWYQQKPGQAPVLVIYFDDARPSGIPERFSGSNSGNTATLTISRVEAGDEADYYCQVWDSFGLSLAPVFGGGTKLTVLGQPKAAPSVTLFPPSSEELQANKATLVCLISDFYPGAVTVAWKADSSPVKAGVETTTPSKQSNNKYAASSYLSLTPEQWKSHRSYSCQVTHEGSTVEKTVAPTECS |
| binds | – | binds | AM9N2-19 (bispecific antibody, human IgG1, kappa, lambda, L234A L235A, κλ-body: common heavy chain, kappa anti-IL2Rγ light chain (AM9), lambda anti-HER2 light chain (N2-19); also called AM9N2-19/N) heavy: not shown light 1: not shown light 2: QSVLTQPPSVSGAPGQRVTISCTGSSSNIENTHTVHWYQQLPGTAPKLLIYDASIRPSGVPDRFSGSKSGTSASLAITGLQAEDEADYYCQSYDWLRGAQVFGGGTKLTVLGQPKAAPSVTLFPPSSEELQANKATLVCLISDFYPGAVTVAWKADSSPVKAGVETTTPSKQSNNKYAASSYLSLTPEQWKSHRSYSCQVTHEGSTVEKTVAPTECS |
| binds | – | binds | AM11N2-19 (bispecific antibody, human IgG1, kappa, lambda, L234A L235A, κλ-body: common heavy chain, kappa anti-IL2Rγ light chain (AM11), lambda anti-HER2 light chain (N2-19); also called AM11N2-19/N) heavy: not shown light 1: EIVLTQSPGTLSLSPGERATLSCRASQNVNHNFLTWYQQKPGQAPRLLIYSASARATGIPDRFSGSGSGTDFTLTISRLEPEDFAVYYCQQFNYAPLTFGQGTKVEIKRTVAAPSVFIFPPSDEQLKSGTASVVCLLNNFYPREAKVQWKVDNALQSGNSQESVTEQDSKDSTYSLSSTLTLSKADYEKHKVYACEVTHQGLSSPVTKSFNRGEC light 2: QSVLTQPPSVSGAPGQRVTISCTGSSSNIENTHTVHWYQQLPGTAPKLLIYDASIRPSGVPDRFSGSKSGTSASLAITGLQAEDEADYYCQSYDWLRGAQVFGGGTKLTVLGQPKAAPSVTLFPPSSEELQANKATLVCLISDFYPGAVTVAWKADSSPVKAGVETTTPSKQSNNKYAASSYLSLTPEQWKSHRSYSCQVTHEGSTVEKTVAPTECS |
| binds | – | binds | AM10N2-19 (bispecific antibody, human IgG1, kappa, lambda, L234A L235A, κλ-body: common heavy chain, kappa anti-IL2Rγ light chain (AM10), lambda anti-HER2 light chain (N2-19); also called AM10N2-19/N) heavy: not shown light 1: not shown light 2: QSVLTQPPSVSGAPGQRVTISCTGSSSNIENTHTVHWYQQLPGTAPKLLIYDASIRPSGVPDRFSGSKSGTSASLAITGLQAEDEADYYCQSYDWLRGAQVFGGGTKLTVLGQPKAAPSVTLFPPSSEELQANKATLVCLISDFYPGAVTVAWKADSSPVKAGVETTTPSKQSNNKYAASSYLSLTPEQWKSHRSYSCQVTHEGSTVEKTVAPTECS |
